The term stoichiometry N denotes the number of molecules, sites or subunits per partner or assembly.

The values below come from PMC6370785.

The target in assay [1] is recombinant human TRAIL/Apo2 Ligand (rhTRAIL) (human) (UniProt P50591). As to the kind of experiment: SDS-PAGE and Western blot; 100 ng rhTRAIL as positive control on the same blot; whether BS3 was added to it is not told.
The target in assay [2] is soluble TRAIL (sTRAIL), secretable trimer-forming variant of human TRAIL (human | yeast) (UniProt P50591). As to the kind of experiment: cross-linking; 293T culture supernatant (48 h after transfection) with 1 mM BS3, 4-20% SDS-PAGE, Western blot with anti-TRAIL. In general terms: A western blot detects proteins with antibodies after separation by electrophoresis.
Assay [3] shares this target. The assay can be described thus: SDS-PAGE and Western blot without cross-linker; 293T culture supernatant (48 h after transfection) without BS3, 4-20% SDS-PAGE, Western blot with anti-TRAIL.

Consider “recombinant human TRAIL/Apo2 Ligand (rhTRAIL) (from UniProt P50591 1-281)”, for which the stoichiometry N in assay [1] is 3.

Turning to “soluble TRAIL (sTRAIL), secretable trimer-forming variant of human TRAIL (from UniProt P50591 114-281) (ligand)”, the results for the stoichiometry N in assay [2] and in assay [3] were 3 and 2, respectively.
